# B1: 克隆号为9A5C5的抗体 (antibody, V domains shown)
# VH: EVQLQQSGPELVKPGASVKISCKTSGYTFTEYTMHWVKQSHGKSLEWIGGINPNNGGTTYNQKFKGKATLTVDKSSSTAYMELRSLTSEDSAVYYCARDGYSFFDYWGQGTTLTVSS
# VL: DIVLTQSPASLAVSLGQRATISCRASKSVSTSGYSYMHWYQQKPGQPPKLLIYLASNLESGVPARFSGSGSGTDFTLNIHPVEEEDAATYYCQHSRELFTFGSGTKLEIK
# B2: 克隆号为3C6E1的抗体 (antibody, V domains shown)
# VH: EVQLVESGGGLIQPGGSLGLSCAASGFTVSSNYMSWVRQAPGRGLEWVSVIYGGGSTTYADSVKGRFTISRDNSKNTLNLQMNSLRAEDTAVYYCARGGRFLHVFDIWGQGTVVTVSS
# VL: QSALTQPASVSGSPGQSITISCTGTSSDIGGYNYVSWYQQHPGKAPKLMIYDVTKRPSGVSNRFSGSKSGNTASLTISGLQAEDEADYHCSSYTSSSTRWVFGGGTKLTVL
# B3: 克隆号为1B12G6的抗体 (antibody, V domains shown)
# VH: QVQLVQSGAEVKKPGSSVKVSCKASGGTFSSYTISWVRQAPGQGLEWLGRIIPILNIANYAQKFQGRVTITADKSTSTAYMELSSLRSEDTAVYYCARDGRASGLGATHYFDYWGQGTLVTVSS
# VL: QSVLTQPPSVSGAPGQRVTISCTGSSSNIGAGYNVHWYQQLPGTAPKLLIYGNSNRPSGVPDRFSGSKSGTSASLAITGLQAEDEADYYCQSYDSSLSGSVFGGGTKLTVL
# B4: 克隆号为3A7C12的抗体 (antibody, V domains shown)
# VH: EVQLVESGGGLVKPGGSLRLSCAASGFTFSSYSMNWVRQAPGKGLEWVSSISSGSSYIYFADSVKGRFTISRDNAKNSLFLQMNSLRAEDTATYYCARAPLGYDSSGYFTMYYFDYWGQGTLVTVSS
# VL: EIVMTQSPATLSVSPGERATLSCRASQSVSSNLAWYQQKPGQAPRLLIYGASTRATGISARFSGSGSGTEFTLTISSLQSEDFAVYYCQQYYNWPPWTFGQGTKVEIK
# notes: also called 3A7C12克隆号抗体
# Columns and labels:
# [1] = target: T1, 新型冠状病毒Gamma突变株Spike RBD蛋白 (新型冠状病毒Gamma突变株 (SARS-CoV-2 Gamma …, UniProt P0DTC2 319-537)); test: indirect ELISA, RBD coated at 2 μg/mL
# T1 construct: domain: Spike RBD; also called Gamma SPIKE RBD蛋白
# [2] = target: T2, 新型冠状病毒Delta突变株Spike RBD蛋白 (新型冠状病毒Delta突变株 (SARS-CoV-2 Delta …, UniProt P0DTC2 319-537)); test: indirect ELISA, RBD coated at 2 μg/mL
# T2 construct: domain: Spike RBD; also called Delta SPIKE RBD蛋白
# [3] = target: T3, 新型冠状病毒Alpha突变株Spike RBD蛋白 (新型冠状病毒Alpha突变株 (SARS-CoV-2 Alpha …, UniProt P0DTC2 319-537)); test: indirect ELISA, RBD coated at 2 μg/mL
# T3 construct: domain: Spike RBD; also called Alpha SPIKE RBD蛋白
# [4] = target: T4, 新型冠状病毒Beta突变株Spike RBD蛋白 (新型冠状病毒Beta突变株 (SARS-CoV-2 Beta variant), UniProt P0DTC2 319-537); test: indirect ELISA, RBD coated at 2 μg/mL
# T4 construct: domain: Spike RBD; also called Beta SPIKE RBD蛋白
# [5] = target: 新型冠状病毒Omicron突变株Spike RBD蛋白 (新型冠状病毒Omicron突变株 (SARS-CoV-2 Omicron …, UniProt P0DTC2 319-537))
# [6] = target: T1, 新型冠状病毒Gamma突变株Spike RBD蛋白; test: ELISA binding experiment (Fig. 3)
# [7] = target: T2, 新型冠状病毒Delta突变株Spike RBD蛋白; test: ELISA binding experiment (Fig. 3)
# [8] = target: T3, 新型冠状病毒Alpha突变株Spike RBD蛋白; test: ELISA binding experiment (Fig. 3)
# [9] = target: T4, 新型冠状病毒Beta突变株Spike RBD蛋白; test: ELISA binding experiment (Fig. 3)
Binder,binding result [1],binding result [2],binding result [3],binding result [4],Kd [5],binding result [6],binding result [7],binding result [8],binding result [9]
B1,no binding (tested: 1 μg/mL),no binding (tested: 1 μg/mL),no binding (tested: 1 μg/mL),no binding (tested: 1 μg/mL),–,–,–,–,–
B2,no binding (tested: 1 μg/mL),no binding (tested: 1 μg/mL),no binding (tested: 1 μg/mL),no binding (tested: 1 μg/mL),–,–,–,–,–
B3,no binding (tested: 1 μg/mL),no binding (tested: 1 μg/mL),no binding (tested: 1 μg/mL),no binding (tested: 1 μg/mL),–,–,–,–,–
B4,–,–,–,–,9.07 nM,no binding,no binding,no binding,no binding

# Reference: patent CN114702578A (BAISI MEDICAL DIAGNOSTICS TECH BEIJING CO LTD, dated 2022)
